Data published in US20180155451A1 (published 2018).
Like-named read-outs stand apart in the source and are kept apart here.

T1: FcγRIIb (human, UniProt P31994 43-217)
T1 construct: extracellular domain; also called FcgRIIb; 2b; not shown: His tag at the C terminus
T1 sequence (looked up): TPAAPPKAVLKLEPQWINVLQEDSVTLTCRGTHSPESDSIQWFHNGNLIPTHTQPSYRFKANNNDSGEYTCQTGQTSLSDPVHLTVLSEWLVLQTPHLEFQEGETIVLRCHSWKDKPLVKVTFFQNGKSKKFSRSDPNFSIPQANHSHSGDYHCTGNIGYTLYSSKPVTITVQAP

T2: FcγRIIa H (human, UniProt P12318 34-217)
T2 construct: extracellular domain; Soluble His-tagged extracellular domain expressed in FreeStyle293 cells; also called FcγRIIa type H; FcgRIIa H; not shown: His tag attached to the C terminus
T2 sequence (looked up): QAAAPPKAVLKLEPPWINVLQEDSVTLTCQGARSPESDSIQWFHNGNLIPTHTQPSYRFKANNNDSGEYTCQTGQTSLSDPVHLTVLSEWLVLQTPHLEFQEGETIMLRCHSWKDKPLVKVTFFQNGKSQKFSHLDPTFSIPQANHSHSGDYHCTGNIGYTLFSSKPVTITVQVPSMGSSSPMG

T3: FcγRIIb (human, UniProt P31994 43-217)
T3 construct: extracellular domain; Soluble His-tagged extracellular domain expressed in FreeStyle293 cells; also called FcgRIIb; 2b; not shown: His tag attached to the C terminus
T3 sequence (looked up): T1 sequence (looked up)

B1: GpH7-A5/GpH7-B3 variant L328_02A/GpL16-k0 (antibody, human IgG1, kappa)
heavy 1: not shown
heavy 2: not shown
light: DIVMTQSPLSLPVTPGEPASISCQASESLVHSNRNTYLHWYLQKPGQSPQLLIYKVSNRFSGVPDRFSGSGSGTDFTLKISRVEAEDVGVYYCSQNTHVPPTFGQGTKVEIERTVAAPSVFIFPPSDEQLKSGTASVVCLLNNFYPREAKVQWKVDNALQSGNSQESVTEQDSKDSTYSLSSTLTLSKADYEKHKVYACEVTHQGLSSPVTKSFNRGEC
notes: heterodimerized IgG1; alteration in the GpH7-B3 H chain only; also called He Ab
B2: GpH7-A5/GpH7-B3 variant N325_01G/GpL16-k0 (antibody, human IgG1, kappa)
heavy 1: not shown
heavy 2: not shown
light: B1 light
notes: Heterodimerized anti-glypican-3 IgG1; mutation in the GpH7-B3 H chain only; also called He Ab
B3: GpH7-A5/GpH7-B3 variant L328_06M/GpL16-k0 (antibody, human IgG1, kappa)
heavy 1: not shown
heavy 2: not shown
light: B1 light
notes: as for B1
B4: GpH7-A5/GpH7-B3 variant L328_14T/GpL16-k0 (antibody, human IgG1, kappa)
heavy 1: not shown
heavy 2: not shown
light: B1 light
notes: as for B1
B5: GpH7-A5/GpH7-B3 variant L328_20W/GpL16-k0 (antibody, human IgG1, kappa)
heavy 1: not shown
heavy 2: not shown
light: B1 light
notes: as for B1
B6: GpH7-A5/GpH7-B3 variant N325_20W/GpL16-k0 (antibody, human IgG1, kappa)
heavy 1: not shown
heavy 2: not shown
light: B1 light
notes: as for B1
B7: GpH7-A5/GpH7-B3 variant L328_15Y/GpL16-k0 (antibody, human IgG1, kappa)
heavy 1: not shown
heavy 2: not shown
light: B1 light
notes: as for B1
B8: GpH7-A5/GpH7-B3 variant P331_03V/GpL16-k0 (antibody, human IgG1, kappa)
heavy 1: not shown
heavy 2: not shown
light: B1 light
notes: as for B1
B9: GpH7-A5/GpH7-B3 variant S337_15Y/GpL16-k0 (antibody, human IgG1, kappa)
heavy 1: not shown
heavy 2: not shown
light: B1 light
notes: as for B2
B10: GpH7-A5/GpH7-B3 variant P331_16H/GpL16-k0 (antibody, human IgG1, kappa)
heavy 1: not shown
heavy 2: not shown
light: B1 light
notes: as for B1
B11: GpH7-A5/GpH7-B3 variant N325_06M/GpL16-k0 (antibody, human IgG1, kappa)
heavy 1: not shown
heavy 2: not shown
light: B1 light
notes: as for B1
B12: GpH7-A5/GpH7-B3 variant K326_06M/GpL16-k0 (antibody, human IgG1, kappa)
heavy 1: not shown
heavy 2: not shown
light: B1 light
notes: as for B2
B13: GpH7-A5/GpH7-B3 variant L328_09D/GpL16-k0 (antibody, human IgG1, kappa)
heavy 1: not shown
heavy 2: not shown
light: B1 light
notes: as for B1
B14: GpH7-A5/GpH7-B3 variant L328_13S/GpL16-k0 (antibody, human IgG1, kappa)
heavy 1: not shown
heavy 2: not shown
light: B1 light
notes: as for B1
B15: GpH7-A5/GpH7-B3 variant N325_07I/GpL16-k0 (antibody, human IgG1, kappa)
heavy 1: not shown
heavy 2: not shown
light: B1 light
notes: as for B1
B16: GpH7-A5/GpH7-B3 variant K326_07I/GpL16-k0 (antibody, human IgG1, kappa)
heavy 1: not shown
heavy 2: not shown
light: B1 light
notes: as for B2
B17: GpH7-A5/GpH7-B3 variant K326_08L/GpL16-k0 (antibody, human IgG1, kappa)
heavy 1: not shown
heavy 2: not shown
light: B1 light
notes: as for B2
B18: GpH7-A5/GpH7-B3 variant S337_18N/GpL16-k0 (antibody, human IgG1, kappa)
heavy 1: not shown
heavy 2: not shown
light: B1 light
notes: as for B2
B19: GpH7-A5/GpH7-B3 variant N325_13S/GpL16-k0 (antibody, human IgG1, kappa)
heavy 1: not shown
heavy 2: not shown
light: B1 light
notes: as for B1
B20: GpH7-A5/GpH7-B3 variant N325_04F/GpL16-k0 (antibody, human IgG1, kappa)
heavy 1: not shown
heavy 2: not shown
light: B1 light
notes: as for B1
B21: GpH7-A5/GpH7-B3 variant K334_20W/GpL16-k0 (antibody, human IgG1, kappa)
heavy 1: not shown
heavy 2: not shown
light: B1 light
notes: as for B2
B22: GpH7-A5/GpH7-B3 variant L328_07I/GpL16-k0 (antibody, human IgG1, kappa)
heavy 1: not shown
heavy 2: not shown
light: B1 light
notes: as for B1
B23: GpH7-A5/GpH7-B3 variant L328_10E/GpL16-k0 (antibody, human IgG1, kappa)
heavy 1: not shown
heavy 2: not shown
light: B1 light
notes: as for B1
B24: GpH7-A5/GpH7-B3 variant L328_04F/GpL16-k0 (antibody, human IgG1, kappa)
heavy 1: not shown
heavy 2: not shown
light: B1 light
notes: as for B1
B25: GpH7-A5/GpH7-B3 variant N325_08L/GpL16-k0 (antibody, human IgG1, kappa)
heavy 1: not shown
heavy 2: not shown
light: B1 light
notes: as for B1

Columns and labels:
FcγRIa [1] = target: T4, FcγRIa (human, UniProt P12314 16-292); test: SPR (Biacore); He/Con_1a (FcγRIa) divided by He/Con_2b (FcγRIIb)
T4 construct: extracellular domain; also called FcgRI; 1a; not shown: His tag at the C terminus

FcγRIa [2] = target: T4, FcγRIa; test: SPR (Biacore), antibody captured, FcγR as analyte; binding as % of GpH7-A5/GpH7-B3/GpL16-k0
FcγRIIb [3] = target: T1, FcγRIIb; test: as above
FcγRIa [4] = target: T4, FcγRIa; test: as above; remark: listed apart in the source
FcγRIIb [5] = target: T1, FcγRIIb; test: as above; remark: listed apart in the source
FcγRIIa H [6] = target: T2, FcγRIIa H; test: SPR (Biacore); He/Con_2aH divided by He/Con_2b (FcγRIIb) of the same antibody
FcγRIIa H [7] = target: T2, FcγRIIa H; test: SPR (Biacore), captured antibody, FcγR analyte; relative to GpH7-A5/GpH7-B3/GpL16-k0 = 100
Experimental: (§1) The heterodimerized antibodies He Abs in which one of the H chains was introduced with an alteration were assayed for their binding activities to each activating FcγR and inhibitory FcγR according to the method described in Example 4. […] The activating FcγRs in FIGS. 26, 27, 28, and 29 are FcγRIa, FcγRIIa (R), FcγRIIa (H), and FcγRIIIa, respectively.
(§2) Analysis of interaction between objective antibody and the FcγR was carried out using Biacore T100 (GE Healthcare). HBS-EP+ (GE Healthcare) was used as the running buffer, and the measurement temperature was set to 25° C. Chips produced by immobilizing the antigen peptide by the amine coupling method to a Series S Sencor Chip CM5 (GE Healthcare), or alternatively, chips produced by allowing preliminarily biotinylated antigen peptides to interact with and immobilize onto a Series S Sensor Chip SA (certified) (GE Healthcare) were used. Antibodies of interest were captured onto an antigen peptide-immobilized chip, and allowed to interact to each FcγR diluted with running buffer. To regenerate and repeatedly use the chip, the antibodies captured on the chip were washed off by reacting 10 mM glycine-HCl, pH 1.5.

FcγRIIb [8] = target: T3, FcγRIIb; test: as above
Experimental: as §1, §2

T4 sequence (P12314 16-292): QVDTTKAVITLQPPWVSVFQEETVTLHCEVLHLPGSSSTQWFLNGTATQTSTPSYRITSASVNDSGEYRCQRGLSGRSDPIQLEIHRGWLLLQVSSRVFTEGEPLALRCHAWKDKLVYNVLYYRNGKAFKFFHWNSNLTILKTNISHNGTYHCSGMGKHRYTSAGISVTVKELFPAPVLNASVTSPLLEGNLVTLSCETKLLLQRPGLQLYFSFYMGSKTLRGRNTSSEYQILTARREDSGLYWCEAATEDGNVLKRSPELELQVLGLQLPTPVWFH

Binder	Ia/IIb He_1a/2b (FcγRIa [1]) [ratio]	He/Con_1a (FcγRIa [2])	He/Con_2b (FcγRIIb [3])	He/Con_1a (FcγRIa [4])	He/Con_2b (FcγRIIb [5])	He_2aH/2b (FcγRIIa H [6]) [ratio]	He/Con_2aH (FcγRIIa H [7])	He/Con_2b (FcγRIIb [8])
B1	0.68	98.5 % of control	144 % of control	98.5 % of control	144 % of control			
B2						0.56	56.8 relative (control = 100)	101 relative (control = 100)
B3	0.7	98.7 % of control	142 % of control	98.7 % of control	142 % of control			
B4	0.71			100 % of control	141 % of control			
B5	0.44			103 % of control	235 % of control			
B6	0.56	93.8 % of control	169 % of control	93.8 % of control	169 % of control			
B7	0.53			102 % of control	193 % of control			
B8	0.78	92 % of control	119 % of control	92 % of control	119 % of control			
B9							99.4 relative (control = 100)	100 relative (control = 100)
B10	0.8			92.4 % of control	116 % of control			
B11	0.45			97.6 % of control	217 % of control			
B12						0.63	103 relative (control = 100)	165 relative (control = 100)
B13	0.51			102 % of control	199 % of control			
B14	0.66	99 % of control	149 % of control	99 % of control	149 % of control			
B15	0.55			94.8 % of control	171 % of control			
B16						0.5	100 relative (control = 100)	199 relative (control = 100)
B17						0.52	92.7 relative (control = 100)	177 relative (control = 100)
B18							99.8 relative (control = 100)	103 relative (control = 100)
B19	0.55	96.8 % of control	177 % of control	96.8 % of control	177 % of control			
B20	0.65			93.2 % of control	143 % of control			
B21							97.6 relative (control = 100)	104 relative (control = 100)
B22	0.62	99.4 % of control	160 % of control	99.4 % of control	160 % of control			
B23	0.59			101 % of control	172 % of control			
B24	0.45	97.9 % of control	219 % of control	97.9 % of control	219 % of control			
B25	0.5			97.5 % of control	197 % of control			
